Assay results as given in PMC9207296, “Photoacoustic imaging reveals mechanisms of rapid-acting insulin formulations dynamics at the injection site” (Molecular Metabolism, 2022).

Assays:
[1] = Photobleaching test of dye-labeled lispro in expired mouse ear (OR-PAM); assay type: physicochemical; conditions: 400 μM in Humalog formulation in expired mouse ear; 21 imaging sessions over 3 hours; 780 nm
Protocol: Before performing live animal experiments, we injected the dye-labeled lispro formulation in the ear of an expired mouse to study the progression of photoacoustic signals to assess photobleaching.
[picture] Figure S1: Photobleaching test of Cy7.5 dye-labeled lispro (400 μM) in Humalog formulation injected in a dead mouse ear. Over the course of 3 hours, 21 imaging sessions were performed and no decrease of photoacoustic signals were found. Scale bar = 500 μm.

[2] = OR-PAM quantification and compartmental kinetic modelling of injection-site absorption in mouse ear; assay type: in vivo; conditions: sulfo-cy7.5 dye without lispro, n = 3, result in words
Protocol: We used 34 gauge needles (207434, Hamilton) with microliter syringes to inject insulin volumes from 0.06 μL to 0.10 μL in the mouse ear. To perform the injection, the syringes were fitted onto a syringe dispenser (PB600, Hamilton), which enabled rapid and controlled injection. The needle was inserted in the mouse ear at an oblique angle (≤45°) and then the desired volume of the dye-labeled insulin lispro formulation was injected using the syringe dispenser. To perform 0.06 μL injections, a 1 μL syringe (80100, Hamilton) was used through which a minimum of 0.02 μL of liquid could be dispensed. To inject 0.1 μL volume, a 5 μL (7634-01, Hamilton) syringe was used. To perform 0.06 μL injection, the 1 μL syringe was fitted with a glass coupler (55752-01, Hamilton) and a luer adaptor (55753-01, Hamilton) to connect to the 34-gauge needle. The 5 μL syringe could be directly connected to the needle.
Mouse experiments were approved as per the IACUC regulations at Caltech. Hsd:Athymic Nude-Fox1^nu mice aged 6–10 weeks (Envigo) were used in all the photoacoustic experiments. The mouse body temperature was maintained at 37 °C during imaging. […]
Since the time required for taking each image is around 220 s, we consider the mid-point of time at which the imaging was started and ended as the imaging time-point. […] All the p values were calculated using unpaired two-sample t-tests. […]

## sulfo-cy7.5 insulin lispro: insulin lispro acylated at the B-chain lysine B28 epsilon amino group with sulfo-cyanine7.5 NHS ester
[1]
  photostability (photoacoustic signal): no decrease in photoacoustic signals after 21 imaging sessions

## sulfo-cyanine7.5 [sulfo-cy7.5 dye]
[2]
  injection-site absorption of dye alone, Lyumjev versus Humalog excipient formulation: absorbed at a faster rate in the Lyumjev formulation
